Data from the supplement of paper PMC9876800.

Test system: peptide library, one residue held at a place counted from the S/T acceptor
Experiment: relative phosphorylation of the sub-library (ratio to the mean residue at this position); higher = residue favoured
Conditions: human
Method in brief: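 Purified recombinant kinases were reacted in 384-well plates with biotinylated degenerate peptide sub-libraries, each having one residue fixed at one position around a central Ser/Thr. The reaction mix contained 50 μM peptide plus 50 μM ATP spiked with γ-32P-ATP and ran for 90 min under kinase-specific conditions. Relative sub-library phosphorylation, taken from densitometry of phosphorimaged streptavidin membrane spots, is a ratio to the mean residue at that position.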

Sequence of BMPR1B, construct: aa149-end (O00238 149-502, looked up): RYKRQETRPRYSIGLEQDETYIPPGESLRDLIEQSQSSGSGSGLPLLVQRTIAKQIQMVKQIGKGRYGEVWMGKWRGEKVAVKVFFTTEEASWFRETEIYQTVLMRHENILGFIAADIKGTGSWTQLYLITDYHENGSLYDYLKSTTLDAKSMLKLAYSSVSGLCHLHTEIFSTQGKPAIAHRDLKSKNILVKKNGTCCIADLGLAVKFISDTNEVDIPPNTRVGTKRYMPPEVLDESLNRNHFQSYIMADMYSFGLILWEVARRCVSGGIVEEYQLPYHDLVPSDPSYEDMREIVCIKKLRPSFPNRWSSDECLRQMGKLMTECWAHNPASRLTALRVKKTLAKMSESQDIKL
Sequence of SGK1, construct: aa61-end (O00141 61-431, looked up): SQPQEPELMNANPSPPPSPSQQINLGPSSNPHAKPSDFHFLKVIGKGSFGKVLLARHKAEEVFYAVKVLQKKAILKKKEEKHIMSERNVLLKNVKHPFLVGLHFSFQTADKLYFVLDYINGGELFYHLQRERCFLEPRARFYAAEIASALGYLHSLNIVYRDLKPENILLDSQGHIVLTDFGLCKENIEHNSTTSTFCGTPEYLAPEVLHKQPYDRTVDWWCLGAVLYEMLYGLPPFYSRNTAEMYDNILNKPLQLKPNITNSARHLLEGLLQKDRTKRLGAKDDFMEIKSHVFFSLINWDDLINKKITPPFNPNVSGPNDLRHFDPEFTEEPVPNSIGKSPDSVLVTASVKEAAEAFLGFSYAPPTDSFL
Sequence of ULK1, construct: aa1-649 (O75385 1-649, looked up): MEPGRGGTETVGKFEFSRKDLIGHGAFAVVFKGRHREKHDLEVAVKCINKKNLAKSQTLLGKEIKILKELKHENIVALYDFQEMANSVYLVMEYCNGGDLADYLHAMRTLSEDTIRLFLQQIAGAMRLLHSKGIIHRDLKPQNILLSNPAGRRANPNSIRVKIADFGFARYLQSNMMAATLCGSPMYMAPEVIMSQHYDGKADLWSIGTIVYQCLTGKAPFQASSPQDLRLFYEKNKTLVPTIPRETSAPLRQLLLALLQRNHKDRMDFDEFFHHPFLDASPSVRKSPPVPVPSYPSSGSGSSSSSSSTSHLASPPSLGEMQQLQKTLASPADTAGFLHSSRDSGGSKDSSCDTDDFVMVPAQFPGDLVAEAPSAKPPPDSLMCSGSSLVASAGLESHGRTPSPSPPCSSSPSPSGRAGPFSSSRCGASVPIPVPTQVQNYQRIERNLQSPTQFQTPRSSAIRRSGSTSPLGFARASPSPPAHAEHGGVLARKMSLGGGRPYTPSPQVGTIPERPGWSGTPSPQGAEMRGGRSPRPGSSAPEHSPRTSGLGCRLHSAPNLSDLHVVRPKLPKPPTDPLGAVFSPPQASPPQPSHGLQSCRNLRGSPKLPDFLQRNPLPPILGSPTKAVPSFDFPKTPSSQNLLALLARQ
Sequence of MAPK12, construct: Full length (P53778 whole entry, looked up): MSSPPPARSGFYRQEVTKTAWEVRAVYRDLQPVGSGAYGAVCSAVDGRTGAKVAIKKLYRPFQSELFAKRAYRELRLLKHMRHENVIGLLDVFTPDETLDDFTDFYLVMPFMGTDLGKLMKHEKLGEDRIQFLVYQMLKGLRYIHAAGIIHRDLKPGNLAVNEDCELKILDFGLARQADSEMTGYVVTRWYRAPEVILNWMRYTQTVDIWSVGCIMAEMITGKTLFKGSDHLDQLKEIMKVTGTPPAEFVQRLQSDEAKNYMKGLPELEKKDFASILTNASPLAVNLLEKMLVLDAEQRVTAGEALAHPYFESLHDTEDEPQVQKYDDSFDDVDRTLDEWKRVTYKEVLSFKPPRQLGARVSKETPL

SGK1, construct: aa61-end (from UniProt O00141)
relative phosphorylation
Conditions | at +1 | at +2 | at +3 | at +4 | at -1 | at -2 | at -3 | at -4 | at -5
A fixed | 0.603 | 1.03 | 0.911 | 1.01 | 0.815 | 1.22 | 0.388 | 1.06 | 0.955
D fixed | 0.457 | 0.581 | 1.1 | 0.881 | 0.63 | 0.242 | 0.147 | 0.679 | 0.427
E fixed | 0.461 | 0.537 | 1.14 | 1.03 | 0.483 | 0.227 | 0.157 | 0.749 | 0.453
F fixed | 2.32 | 0.768 | 0.975 | 0.795 | 0.768 | 0.493 | 0.16 | 0.613 | 0.62
G fixed | 0.766 | 1.06 | 1.33 | 1.17 | 1.73 | 0.758 | 0.268 | 1.04 | 0.948
H fixed | 0.889 | 1.6 | 1.35 | 1.33 | 1.25 | 0.946 | 0.757 | 1.01 | 0.99
I fixed | 1.45 | 1.18 | 0.784 | 0.863 | 0.395 | 0.28 | 0.145 | 0.641 | 0.7
K fixed | 0.861 | 0.906 | 1.17 | 1.05 | 1.38 | 3.57 | 1.4 | 1.98 | 2.38
L fixed | 1.22 | 1.27 | 0.975 | 0.702 | 0.751 | 0.401 | 0.149 | 0.699 | 0.617
M fixed | 1.49 | 0.948 | 0.833 | 0.936 | 1.05 | 0.335 | 0.157 | 0.838 | 0.736
N fixed | 0.881 | 1.13 | 0.976 | 1.22 | 1.52 | 0.55 | 0.245 | 0.825 | 0.852
P fixed | 0.859 | 0.94 | 0.921 | 1.31 | 1.25 | 0.388 | 0.296 | 1.17 | 0.882
Q fixed | 0.974 | 0.674 | 0.939 | 0.921 | 0.893 | 0.544 | 0.443 | 0.902 | 0.744
R fixed | 1.01 | 1.58 | 1.01 | 1.03 | 1.64 | 5.91 | 11.7 | 2.89 | 3.67
V fixed | 1.16 | 1.01 | 0.753 | 0.737 | 0.471 | 0.352 | 0.152 | 0.693 | 0.675
W fixed | 0.7 | 0.737 | 0.892 | 1.1 | 0.692 | 0.332 | 0.225 | 0.59 | 0.626
Y fixed | 0.906 | 1.05 | 0.934 | 0.912 | 1.28 | 0.452 | 0.219 | 0.625 | 0.721
pThr fixed | 0.747 | 0.655 | 0.926 | 1.36 | 0.306 | 0.367 | 0.24 | 0.711 | 0.556
pTyr fixed | 0.806 | 1.04 | 1.43 | 1.54 | 0.752 | 0.319 | 0.232 | 0.574 | 0.722

BMPR1B, construct: aa149-end (from UniProt O00238)
relative phosphorylation
Conditions | at +1 | at +2 | at +3 | at +4 | at -1 | at -2 | at -3 | at -4 | at -5
A fixed | 1.07 | 1.39 | 1.01 | 0.984 | 0.997 | 0.924 | 1.21 | 1.09 | 1.34
D fixed | 1.83 | 1.33 | 1.58 | 0.977 | 1.64 | 2.17 | 2.03 | 2.24 | 1.67
E fixed | 5.67 | 1.49 | 1.56 | 1.15 | 1.77 | 6.66 | 2.3 | 1.75 | 1.49
F fixed | 0.422 | 0.61 | 0.873 | 1 | 0.771 | 0.382 | 0.596 | 0.674 | 0.73
G fixed | 0.798 | 1.57 | 0.953 | 1.03 | 0.637 | 0.725 | 1.14 | 1.26 | 1.2
H fixed | 0.552 | 0.988 | 0.857 | 0.895 | 0.919 | 0.493 | 0.923 | 0.855 | 0.972
I fixed | 0.631 | 0.606 | 0.753 | 0.984 | 0.833 | 0.496 | 0.586 | 0.704 | 0.681
K fixed | 0.404 | 1.04 | 0.655 | 1.14 | 0.73 | 0.386 | 0.69 | 0.818 | 0.938
L fixed | 0.503 | 0.727 | 0.935 | 0.888 | 1.1 | 0.553 | 0.663 | 0.733 | 0.766
M fixed | 0.62 | 0.757 | 0.869 | 0.949 | 1.29 | 0.497 | 0.773 | 0.86 | 0.798
N fixed | 0.743 | 0.911 | 0.961 | 0.926 | 0.901 | 0.679 | 1.08 | 0.92 | 1
P fixed | 0.344 | 1.38 | 1.13 | 1.21 | 0.627 | 0.499 | 0.977 | 0.998 | 1.09
Q fixed | 0.676 | 0.809 | 0.945 | 0.981 | 0.965 | 0.702 | 1.07 | 1.01 | 0.839
R fixed | 0.48 | 0.842 | 0.891 | 0.924 | 0.791 | 0.439 | 0.803 | 0.801 | 0.869
V fixed | 1.2 | 0.664 | 0.97 | 0.908 | 1.02 | 0.581 | 0.697 | 0.769 | 0.921
W fixed | 0.519 | 0.897 | 1.01 | 1.02 | 0.844 | 0.397 | 0.659 | 0.744 | 0.892
Y fixed | 0.528 | 0.985 | 1.04 | 1.04 | 1.17 | 0.415 | 0.795 | 0.764 | 0.799
pThr fixed | 6.15 | 2.16 | 1.11 | 1.13 | 1.03 | 2.23 | 2.34 | 1.67 | 1.35
pTyr fixed | 1.18 | 0.924 | 1.3 | 0.928 | 1.8 | 0.801 | 1.81 | 1.51 | 1.41

ULK1, construct: aa1-649 (from UniProt O75385)
relative phosphorylation
Conditions | at +1 | at +2 | at +3 | at +4 | at -1 | at -2 | at -3 | at -4 | at -5
A fixed | 0.56 | 0.645 | 0.867 | 0.899 | 1.17 | 1.22 | 0.964 | 1.16 | 1.15
D fixed | 0.265 | 0.292 | 0.853 | 0.841 | 1.13 | 1.22 | 0.659 | 1.21 | 1.61
E fixed | 0.424 | 0.307 | 0.834 | 0.944 | 1.19 | 1.19 | 0.572 | 0.905 | 1.02
F fixed | 1.74 | 1.12 | 0.842 | 0.803 | 0.477 | 1.08 | 1.11 | 0.716 | 0.797
G fixed | 0.359 | 0.409 | 1.04 | 1.11 | 0.79 | 0.916 | 0.884 | 1.3 | 1.18
H fixed | 0.854 | 1.87 | 1.13 | 1.19 | 0.857 | 1.14 | 0.682 | 1.01 | 1.15
I fixed | 1.53 | 1.26 | 0.869 | 0.738 | 0.543 | 0.753 | 0.674 | 0.678 | 0.572
K fixed | 0.615 | 0.849 | 1.48 | 1.32 | 1.83 | 0.608 | 0.404 | 0.832 | 1.09
L fixed | 1.13 | 0.94 | 0.901 | 0.836 | 0.723 | 0.799 | 1.56 | 0.821 | 0.733
M fixed | 2.01 | 1.23 | 0.906 | 0.848 | 1.19 | 1.09 | 4.03 | 1.07 | 0.786
N fixed | 0.563 | 0.816 | 0.891 | 1.01 | 1.09 | 0.947 | 1.1 | 1.2 | 1.42
P fixed | 0.234 | 0.211 | 0.927 | 1.32 | 0.397 | 0.439 | 0.698 | 1.27 | 0.811
Q fixed | 1.26 | 0.753 | 1.24 | 1.17 | 1.52 | 0.991 | 0.837 | 1.02 | 0.957
R fixed | 0.725 | 0.989 | 1.2 | 0.993 | 1.57 | 0.545 | 0.447 | 0.844 | 1.1
V fixed | 1.47 | 1.02 | 0.866 | 0.77 | 0.903 | 0.913 | 0.574 | 0.659 | 0.661
W fixed | 1.39 | 1.65 | 1.1 | 1.2 | 0.82 | 1.93 | 1.2 | 1.6 | 1.18
Y fixed | 1.87 | 2.64 | 1.04 | 1 | 0.794 | 1.22 | 0.599 | 0.716 | 0.786
pThr fixed | 0.885 | 0.413 | 0.718 | 1.13 | 0.568 | 0.67 | 0.704 | 0.846 | 0.762
pTyr fixed | 1.14 | 0.618 | 0.648 | 0.615 | 0.99 | 1.12 | 0.642 | 0.672 | 0.664

MAPK12, construct: Full length (from UniProt P53778)
relative phosphorylation
Conditions | at +1 | at +2 | at +3 | at +4 | at -1 | at -2 | at -3 | at -4 | at -5
A fixed | 0.289 | 1.22 | 1.13 | 1.01 | 1.21 | 1.66 | 1.13 | 1.19 | 1.07
D fixed | 0.0904 | 0.475 | 0.864 | 0.879 | 0.738 | 0.789 | 1.23 | 1.28 | 1.22
E fixed | 0.0906 | 0.374 | 0.973 | 0.872 | 0.905 | 0.822 | 1.41 | 1.21 | 1.14
F fixed | 0.153 | 0.77 | 0.897 | 1.1 | 0.582 | 0.444 | 0.622 | 0.672 | 0.818
G fixed | 0.644 | 1.1 | 1.36 | 1.23 | 1.36 | 1.14 | 1.98 | 1.44 | 1.34
H fixed | 0.183 | 1.38 | 1.26 | 1 | 1.17 | 0.584 | 1.23 | 1.04 | 1.16
I fixed | 0.187 | 1.31 | 0.697 | 0.881 | 0.542 | 0.946 | 0.712 | 0.774 | 0.715
K fixed | 0.152 | 1.08 | 0.962 | 0.931 | 1.04 | 0.433 | 0.761 | 1.12 | 1.28
L fixed | 0.198 | 0.947 | 0.845 | 0.994 | 1.03 | 1.31 | 0.643 | 0.855 | 0.733
M fixed | 0.17 | 0.878 | 0.851 | 1.15 | 1.27 | 1.16 | 0.838 | 0.949 | 0.83
N fixed | 0.108 | 0.806 | 0.852 | 0.821 | 0.878 | 0.819 | 1.01 | 1.07 | 1.03
P fixed | 13.8 | 0.539 | 1.33 | 1.11 | 1.37 | 3.27 | 1.33 | 1.11 | 1.27
Q fixed | 0.141 | 0.914 | 0.934 | 0.921 | 1.13 | 0.742 | 0.918 | 0.916 | 0.937
R fixed | 0.174 | 1.84 | 1.28 | 0.908 | 1.48 | 0.664 | 1.05 | 1.03 | 1.06
V fixed | 0.302 | 1.36 | 0.855 | 0.89 | 0.611 | 1.31 | 0.649 | 0.654 | 0.823
W fixed | 0.181 | 0.851 | 0.894 | 1.18 | 0.674 | 0.457 | 0.674 | 0.869 | 0.725
Y fixed | 0.159 | 1.15 | 1.02 | 1.12 | 1.01 | 0.446 | 0.802 | 0.827 | 0.859
pThr fixed | 0.509 | 1.04 | 0.824 | 0.669 | 0.457 | 0.823 | 1.27 | 1.15 | 1.42
pTyr fixed | 0.52 | 0.799 | 0.925 | 0.686 | 0.878 | 1.11 | 1.56 | 1.28 | 1.44
